The values that follow come from paper PMC3353549 (Developmental Cell, 2012).

Common to all, as to assay: SEC
Experiment [1] addresses (CENP-A/H4)2 heterotetramer (human, UniProt P49450 1-140; P62805 1-103).
The next experiment has as its target (CENP-A^S68Q/H4)2 (human, UniProt P49450 1-140; P62805 1-103, S68Q).
Experiment [2] addresses CENP-A^H115A/L128A/H4 heterodimer (human, UniProt P49450 1-140; P62805 1-103, H115A | L128A).

Sequence of (CENP-A/H4)2 heterotetramer (P49450 whole entry, one chain of several): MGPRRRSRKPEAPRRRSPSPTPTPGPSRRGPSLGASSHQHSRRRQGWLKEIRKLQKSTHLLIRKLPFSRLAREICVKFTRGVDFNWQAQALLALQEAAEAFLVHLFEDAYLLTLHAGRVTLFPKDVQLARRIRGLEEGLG
Sequence of (CENP-A^S68Q/H4)2 (P49450 whole entry S68Q, one chain of several): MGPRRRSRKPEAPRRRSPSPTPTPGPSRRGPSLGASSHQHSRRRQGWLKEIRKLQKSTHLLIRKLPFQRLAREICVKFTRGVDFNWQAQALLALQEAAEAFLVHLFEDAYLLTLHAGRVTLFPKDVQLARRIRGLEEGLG
Sequence of CENP-A^H115A/L128A/H4 heterodimer (P49450 whole entry H115A/L128A, one chain of several): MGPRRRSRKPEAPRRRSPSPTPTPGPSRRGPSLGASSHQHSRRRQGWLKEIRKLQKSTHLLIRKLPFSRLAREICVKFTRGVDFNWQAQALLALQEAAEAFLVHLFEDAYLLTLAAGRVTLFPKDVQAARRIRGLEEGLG

B1: MBP-HJURP^1–62 (domain or fragment)
chain: MLGTLRAMEGEDVEDDQLLQKLRASRRRFQRRMQRLIEKYNQPFEDTPVVQMATLTYETPQG
As to B1, the binding result in experiment [1] is reported as “binds”.

B2: MBP-HJURP^1–80 (domain or fragment)
chain: MLGTLRAMEGEDVEDDQLLQKLRASRRRFQRRMQRLIEKYNQPFEDTPVVQMATLTYETPQGLRIWGGRLIKERNEGEIQ
With B2, the binding result (in experiment [1]; with (CENP-A^S68Q/H4)2; in experiment [2]) was “binds” throughout.

B3: MBP-HJURP^1–80/W66A (domain or fragment)
chain: MLGTLRAMEGEDVEDDQLLQKLRASRRRFQRRMQRLIEKYNQPFEDTPVVQMATLTYETPQGLRIAGGRLIKERNEGEIQ
B3: in experiment [1], the binding result is listed as “binds”.
